Assay results published in US20090155304A1 (OSEL, published 2009).

Experiments:
[1] = target: gp120 of CXCR4-tropic HIV-1 IIIB (on cell-free virus) (HIV-1 IIIB); assay: cell-based or functional assay
[2] = target: gp120 of CCR5-tropic HIV-1 BaL (on cell-free virus) (HIV-1 BaL); assay: cell-based or functional assay

B1: Lactobacillus-derived full-length APVT-CV-N (P51G) (other)
chain: APVTLGKFSQTCYNSAIQGSVLTSTCERTNGGYNTSSIDLNSVIENVDGSLKWQGSNFIETCRNTQLAGSSELAAECKTRAQQFVSTKINLDDHIANIDGTLKYE
IC50, inhibition of CXCR4-tropic HIVIIIB (HeLa-LTR-beta-gal X4-tropic attachment assay) [1]: < 3 nM
IC50, inhibition of CCR5-tropic HIVBaL infection (MAGI-R5-LTR-beta-gal attachment inhibition assay) [2]: 0.3 nM
